Assay results reported in article PMC4914093 (Nucleic Acids Research, 2016).

Molecular target: T1, Rev1 C-terminal domain (876–985) of the Rad5–Rev1 fusion protein (S. cerevisiae, UniProt P12689 876-985)
T1 sequence (looked up): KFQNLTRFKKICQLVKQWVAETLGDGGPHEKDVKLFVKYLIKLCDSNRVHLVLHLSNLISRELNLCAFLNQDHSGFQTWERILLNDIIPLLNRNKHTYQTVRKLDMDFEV
Assay: crystal structure

B1: Rad5 peptide (5–20) of the Rad5–Rev1 fusion protein (peptide, UniProt P32849 5-20, looked up)
chain: EQEERKRFFNDDLDTS
Question: Does B1 bind?
Answer: binds
